Source: publication PMC12838833

Biological target: Staphylococcus aureus DltA (D-alanine-D-alanyl carrier protein ligase) (Staphylococcus aureus) (UniProt Q2FZW6)
UniProt Q2FZW6, sequence (Q2FZW6 whole entry): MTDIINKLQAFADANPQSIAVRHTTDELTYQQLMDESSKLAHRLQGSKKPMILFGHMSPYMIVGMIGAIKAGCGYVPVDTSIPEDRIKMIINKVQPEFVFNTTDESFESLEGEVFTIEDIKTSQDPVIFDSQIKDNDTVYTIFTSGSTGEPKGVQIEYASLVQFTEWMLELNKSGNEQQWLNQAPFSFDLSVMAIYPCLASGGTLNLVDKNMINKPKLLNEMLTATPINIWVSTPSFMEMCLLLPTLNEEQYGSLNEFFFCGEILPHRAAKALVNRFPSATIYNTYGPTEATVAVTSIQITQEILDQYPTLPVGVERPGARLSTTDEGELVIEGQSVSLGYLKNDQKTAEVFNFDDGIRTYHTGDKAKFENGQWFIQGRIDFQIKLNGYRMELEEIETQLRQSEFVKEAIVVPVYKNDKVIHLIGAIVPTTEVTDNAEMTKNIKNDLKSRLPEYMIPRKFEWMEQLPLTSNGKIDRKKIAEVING

B1: Wild-type Staphylococcus aureus D-alanyl carrier protein DltC (natural protein)
chain: MEFREQVLNLLAEVAENDIVKENPDVEIFEEGIIDSFQTVGLLLEIQNKLDIEVSIMDFDRDEWATPNKIVEALEELR
modifications: 4'-phosphopantetheine (Ppant) on Ser36 (co-expressed with AcpS to produce Ppant-attached SaDltC)
- SaDltA adenylation activity (pyrophosphate detection assay, initial rates; 5 uM SaDltA with 300 uM SaDltC, 37 °C), increase over SaDltA alone: 22.3 fold
